Test results reported in patent US20050287608A1.

Molecular target: ubiquitinated proteins of yeast cells
Experiment: Flag purification from yeast cells, anti-Ub immunoblot

reduction in the amount of ubiquitinated protein recovered, against Flag-Rad23 [%]	interaction remaining, compared to the wildtype protein [%]	Substance
80		Flag-rad23^uba1 (yeast Rad23 L183A, amino-terminal Flag epitope) (from UniProt P32628 1-398)
	1	Flag-rad23^Δuba1 (yeast Rad23 with residues 141-190 removed, amino-terminal Flag epitope) (from UniProt P32628 1-140; P32628 191-398)
